Values of other authors, collected in publication PMC12732943.

Target: Fibrin (Homo sapiens) (UniProt P02671)

Kd: 302 nM
Substance: GPVI (monomeric) (from UniProt Q9HCN6)
